± gives the uncertainty stated by the source.
Experiment: protein stability index of a GFP-peptide fusion (yeast GPS) (PSI 1-4); higher = more stable; sorted into four equal gates, so the index is relative within each strain
Outline: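 Each library plasmid carries Cherry plus GFP with a tiled 17-residue yeast protein peptide fused downstream, and the pooled library was carried in yeast. Mid-log cultures in leucine-free medium were sorted into four equal gates by GFP/Cherry ratio. Reads from Illumina sequencing of PCR-amplified plasmids from each gate were assigned to strains by barcodes. Per peptide, the protein stability index was computed as the summed products of gate read frequency and gate number.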

| Sequence | protein stability index (doa10∆) | protein stability index (pdr5∆) | protein stability index (san1∆) | protein stability index (ubr1∆) |
| --- | --- | --- | --- | --- |
| ISEEETTVKPLFQNVPE [YAR002W/NUP60] | 3.01 ± 0.069 | 3.25 ± 0.068 | 3.23 ± 0.043 | 3.01 ± 0.058 |
| ISEFDSFTDILKSAIRD [RPN12] | 2.73 ± 0.12 | 3.15 ± 0.17 | 3.04 ± 0.11 | 2.42 ± 0.13 |
| ISFVLGVRSNHLRSNIL [SMC1] | 2.09 ± 0.061 | 2.16 ± 0.088 | 2.08 ± 0.097 | 2.47 ± 0.064 |
| ISGDISDMQHIERLLKD [PRE4] | 2.99 ± 0.14 | 3.1 ± 0.11 | 3.13 ± 0.14 | 2.99 ± 0.1 |
| ISKKLQFSYLSSTLGID [PCI8] | 2.08 ± 0.055 | 1.67 ± 0.054 | 1.49 ± 0.097 | 1.63 ± 0.044 |
| ISKNPSNGIFYGPSFTK [SIR2] | 2.94 ± 0.071 | 3.03 ± 0.054 | 2.76 ± 0.059 | 3.15 ± 0.039 |
| ISLLALPHSPLWELALA [YML031W/NDC1] | 1.35 ± 0.086 | 1.49 ± 0.061 | 1.34 ± 0.11 | 1.7 ± 0.042 |
| ISNGNLATGPNLTSEIE [YOR098C/NUP1] | 3.4 ± 0.096 | 3.39 ± 0.11 | 3.17 ± 0.06 | 3.41 ± 0.091 |
| ISQPKSMSGRISAKDMG [BRR2] | 3.1 ± 0.06 | 3.16 ± 0.055 | 3.08 ± 0.058 | 3.15 ± 0.046 |
| ISQSQLGKFKNIIASPL [SIN4] | 1.73 ± 0.067 | 1.96 ± 0.049 | 2.01 ± 0.088 | 2.08 ± 0.057 |
| ISSHSHPVSLISFAIYS [RRP42] | 1.51 ± 0.052 | 1.62 ± 0.058 | 1.86 ± 0.075 | 1.54 ± 0.033 |
| ISTHLKTICNLLISDTE [IRR1] | 1.64 ± 0.05 | 1.86 ± 0.059 | 1.88 ± 0.088 | 1.5 ± 0.032 |
| ISTVIEVNREEAIGFIR [SMC3] | 2.93 ± 0.21 | 2.65 ± 0.11 | 2.86 ± 0.16 | 2.57 ± 0.088 |
| ITAVHVKIRATGGTRTK [RPS14A] | 1.58 ± 0.05 | 1.63 ± 0.041 | 1.82 ± 0.09 | 1.67 ± 0.042 |
| ITGEKLDTQLNDLRVSL [SMC1] | 1.3 ± 0.068 | 2 ± 0.076 | 1.58 ± 0.18 | 1.16 ± 0.032 |
| ITHKLTKNDAGSKQILK [BRR2] | 3.07 ± 0.071 | 3.43 ± 0.079 | 3.21 ± 0.036 | 3.23 ± 0.055 |
| ITIQDLLFPKSTIVNLA [DPB4] | 2.45 ± 0.066 | 2.71 ± 0.11 | 2.51 ± 0.069 | 2.59 ± 0.083 |
| ITISIHGKPTKGSSLAS [SSN8] | 2.24 ± 0.17 | 2.39 ± 0.086 | 2.43 ± 0.079 | 2.58 ± 0.041 |
| ITKVPALEFLNTTLQDN [REC8] | 2.77 ± 0.08 | 2.7 ± 0.15 | 2.98 ± 0.12 | 2.71 ± 0.084 |
| ITLALSSNPNSSLHSPT [SRB4] | 2.9 ± 0.067 | 2.99 ± 0.055 | 2.91 ± 0.047 | 3.05 ± 0.044 |

| Sequence | protein stability index (doa10∆) | protein stability index (pdr5∆) | protein stability index (san1∆) | protein stability index (ubr1∆) |
| --- | --- | --- | --- | --- |
| ITLFVLVSVVEAFIASG [FAS2] | 1.53 ± 0.048 | 1.41 ± 0.043 | 2.06 ± 0.061 | 1.8 ± 0.051 |
| ITMESVHEWEVSKPSLL [PRP8] | 3.29 ± 0.069 | 3.29 ± 0.069 | 3.29 ± 0.066 | 3.24 ± 0.056 |
| ITNDWEQPCVDIISGKI [YJR042W/NUP85] | 3.36 ± 0.078 | 3.44 ± 0.066 | 3.18 ± 0.053 | 3.02 ± 0.058 |
| ITRSFKEPRLVIVTDPR [RPS0A] | 1.56 ± 0.2 | 1.89 ± 0.13 | 1.98 ± 0.14 | 1.28 ± 0.13 |
| IVDTSGRHHQEEELFQE [SRP54] | 3.31 ± 0.07 | 3.13 ± 0.043 | 3.07 ± 0.056 | 3.24 ± 0.053 |
| IVGLATLIVNTDVEKSD [SRP21] | – | – | – | 3.69 ± 0.26 |
| IVHSSDGHLQFLNDVIP [DLS1] | 2.99 ± 0.082 | 2.75 ± 0.077 | 2.6 ± 0.16 | 2.51 ± 0.088 |
| IVKNAEQHNLVKKGPVR [RPS20] | 2.84 ± 0.058 | 3.13 ± 0.066 | 2.9 ± 0.072 | 2.95 ± 0.078 |
| IVNGTEKVILVQEQLSK [RET1] | 1.54 ± 0.13 | 2.22 ± 0.057 | 1.53 ± 0.11 | 2.29 ± 0.088 |
| IVSKSIEMYVQEASKQY [RPN2] | 2.53 ± 0.087 | 2.98 ± 0.1 | 1.54 ± 0.088 | 2.68 ± 0.1 |
| IVSPQSNKPCMGIVQDT [RPO21] | 1.74 ± 0.064 | 1.68 ± 0.047 | 1.76 ± 0.098 | 1.58 ± 0.046 |
| IVTEQPSAEIREAYIEN [SWP82] | 2.47 ± 0.062 | 2.88 ± 0.062 | 2.74 ± 0.073 | 2.2 ± 0.065 |
| IVTPVEKAVEEKPAVKS [RPT3] | 2.6 ± 0.1 | 3.07 ± 0.064 | 3.17 ± 0.051 | 3.13 ± 0.086 |
| IVVLVPKFGVEGLIRLD [DIS3] | 2.16 ± 0.07 | 2.41 ± 0.063 | 2.31 ± 0.085 | 2 ± 0.054 |
| IYLSQNELTDAIALAVR [RPN1] | 2.58 ± 0.045 | 2.67 ± 0.052 | 2.88 ± 0.039 | 2.59 ± 0.032 |
| IYRYDEMSNKVLKVDKR [BRR2] | 2.97 ± 0.042 | 3.09 ± 0.051 | 2.96 ± 0.038 | 2.84 ± 0.047 |
| IYYTPAFFHLFASLRVL [YJL039C/NUP192] | 1.73 ± 0.08 | 1.71 ± 0.081 | 1.43 ± 0.13 | 1.75 ± 0.083 |
| KAAGLTAAYARTIGIAV [RPL13A] | 1.56 ± 0.077 | 1.46 ± 0.059 | 1.22 ± 0.11 | 1.38 ± 0.089 |
| KADTDTLLYEQIIQRDK [SNF5] | 3.23 ± 0.11 | 3.37 ± 0.11 | 3.21 ± 0.062 | 3.29 ± 0.064 |

From the supplement of paper PMC9732359
